Results published in the supplement of paper PMC10126150.
± gives the standard deviation of the averaged measurements.

The sequences below were run on ATP (assay: switch fluorescence ratio, 500 uM ATP over buffer (Cy3 cluster intensity, sum of 5 cycles each) (fold (ratio)); higher = stronger signal-on switching upon ATP binding; sequences stand for … in TCGTCGGCAGCGTCAGATGTGTATAAGAGACAGTTTTTTTTTTTTTTTTTTTTTTTTT…TC). Details: aptamer strand: ATP DNA aptamer (quencher-CACCTGGGGGAGTATTGCGGAGGAAGG + anchor), 100 nM annealed; ATP concentration: 500 uM.
Summary of the method: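 Clusters with intensities outside 100-1000 RFU were excluded. The remaining Cy3-labelled switching-strand clusters on a modified Illumina MiSeq flow-cell had been annealed to 100 nM quencher-labelled ATP aptamer and imaged in selection buffer, then after 15 min with 500 uM ATP at 22 °C, for five cycles separated by NaOH stripping and re-annealing. The fluorescence ratio, averaged per switch-domain sequence, is each cluster's summed target-cycle Cy3 intensity over its summed buffer-cycle Cy3 intensity.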
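Also: ATP exposure 15 min at 22 °C before imaging.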

In order of rising switch fluorescence ratio:
1. GCTATTGGGT  0.95 ± 0.022
2. GCTCAACGGT  0.9561 ± 0.0041
3. GCTAAACGTG  0.959 ± 0.014
4. GCTAGGGTTT  0.965 ± 0.015
5. GCGTATCTTA  0.968 ± 0.014
6. GCTAGAAAGA  0.972 ± 0.0073
7. GCTAGATGCG  0.973 ± 0.03
8. GCTATCGTGC  0.975 ± 0.013
9. GCGGTGCCTG  0.977 ± 0.042
10. GCGTTTTGCA  0.978 ± 0.015
11. GCTAGAGTGC  0.979 ± 0.021
12. GCGTTTTTCA  0.9801 ± 0.0094
13. GCTATCTTAT  0.9798 ± 0.008
14. GCGTTGTTGT  0.981 ± 0.02
15. GCGTTTTGAG  0.981 ± 0.025
16. GCTATATTTT  0.982 ± 0.017
17. GCGGTTCCTG  0.9829 ± 0.0076
18. GCTATGAGTA  0.9832 ± 0.0097
19. GCGTTGTGAA  0.9835 ± 0.0057
20. GCGTAAGGGT  0.985 ± 0.012
21. GCGTTTGGTA  0.988 ± 0.04
22. GCTAAATGTT  0.988 ± 0.015
23. GCTATTAGTG  0.9892 ± 0.0051
24. GCGTAACCGT  0.99 ± 0.038
25. GCGTTTAGTA  0.992 ± 0.03
26. GCTAACGTGC  0.993 ± 0.046
27. GCGGTTTCGG  0.994 ± 0.024
28. GCGTCTAATC  0.994 ± 0.011
29. GCTAATGGGA  0.994 ± 0.018
30. GCTAGGGTGG  0.994 ± 0.018
31. GCGTTTGGGT  0.9955 ± 0.0041
32. GCTAGTATG  0.9954 ± 0.0072
33. GCTATGAAAG  0.995 ± 0.013
34. GCTCTAGTGT  0.996 ± 0.013
35. GCTATTTGGA  0.997 ± 0.012
36. GCTAAAAAGC  0.998 ± 0.033
37. GCTATAGTAT  0.998 ± 0.0056
38. GCGTCGGGGA  1 ± 0.047
39. GCGTGGGGGA  1 ± 0.039
40. GCGTTCGGGC  1 ± 0.029
41. GCGTTGGGGC  1 ± 0.054
42. GCTAGCGTTC  1 ± 0.013
43. GCTAGTTGGG  0.9998 ± 0.0015
44. GCTATGTGGG  1.003 ± 0.0041
45. GCTCATAAAA  1.001 ± 0.0065
46. GCTCGATGTG  1 ± 0.015
47. GCGGTTGGGG  1.01 ± 0.018
48. GCGGTTGTCG  1.01 ± 0.03
49. GCGTAAAGGT  1.014 ± 0.0064
50. GCGTGGAGGG  1.013 ± 0.0029
51. GCGTTGTGGC  1.01 ± 0.05
52. GCTACAGCTA  1.01 ± 0.04
53. GCTATCGAGT  1.01 ± 0.018
54. GCTATGAATG  1.01 ± 0.024
55. GCTCATGAGC  1.007 ± 0.0093
56. GCTCGTAAGT  1.01 ± 0.0049
57. GCGGTTAGAA  1.02 ± 0.026
58. GCGTAGAATC  1.02 ± 0.018
59. GCGTCAATTG  1.02 ± 0.035
60. GCGTGGGGGC  1.02 ± 0.019
61. GCTAGAGGGG  1.02 ± 0.048
62. GCTAGTAAAA  1.02 ± 0.029
63. GCTCAACAGA  1.022 ± 0.0057
64. GCTCGGTCGG  1.02 ± 0.037
65. GCGGTTTGAC  1.03 ± 0.018
66. GCGTAGGGCC  1.03 ± 0.027
67. GCGTGAAGAA  1.03 ± 0.029
68. GCTAAGCCTG  1.03 ± 0.017
69. GCTAATTGCA  1.03 ± 0.057
70. GCTAGCTAAG  1.034 ± 0.0011
71. GCTAGTGTGG  1.03 ± 0.015
72. GCTATACAGC  1.03 ± 0.049
73. GCTATGAGAC  1.03 ± 0.055
74. GCGTGCTGAA  1.04 ± 0.043
75. GCTAAATCGC  1.04 ± 0.034
76. GCTACTTTGC  1.037 ± 0.0045
77. GCTAGTGGTG  1.04 ± 0.018
78. GCTAAAGGTC  1.05 ± 0.044
79. GCTACTACTG  1.05 ± 0.022
80. GCTATCCCTG  1.05 ± 0.018
81. GCTCACCTAT  1.05 ± 0.048
82. GCGTGATTGC  1.06 ± 0.031
83. GCGTTACTTA  1.06 ± 0.018
84. GCTAATAGCC  1.059 ± 0.00084
85. GCTACCTTTT  1.06 ± 0.069
86. GCTCCCTGAG  1.056 ± 0.0076
87. GCTAGGGGTG  1.07 ± 0.055
88. GCTCCTGAGG  1.073 ± 0.0081
89. GCGTAAGGTG  1.1 ± 0.084
90. GCTAACCATT  1.1 ± 0.15
91. GCGGTCCCCG  1.11 ± 0.031
92. GCGTACTCAA  1.11 ± 0.043
93. GCTCTAATGC  1.17 ± 0.096
94. GCTCCTGTGC  1.1992 ± 0.00049
95. GCTCAGGGGA  1.21 ± 0.097
96. GCGTCCGCGG  1.26 ± 0.041
97. GCTATCACCA  1.31 ± 0.32
98. GCTCACACGG  1.62 ± 0.023
99. GCGTTTATAC  1.96 ± 0.56
100. GCGTCAGGTG  3.82 ± 0.21
